Measurements from patent US20120121596A1 (published 2012).

Columns and labels:
[1] = molecular target: T1, monomeric human HER3-ecd (Example 9) (human, UniProt P21860 20-643); assay: SPR BIAcore 2000, DL11f human IgG1 immobilized on CM5, monomeric ecd analyte 0.244-250 nM, 25 C
T1 construct: extracellular domain

[2] = molecular target: T2, monomeric human EGFR-ecd (Example 9) (human, UniProt P00533 25-637); assay: as above
T2 construct: range 1-637

[3] = molecular target: T1, monomeric human HER3-ecd (Example 9); assay: SPR, both experiments; reference: affinity for EGFR
[4] = molecular target: HER3 on cells (MCF7 cells; MDA-175 cells) (UniProt P21860 20-1342, limits assumed); assay: cell-based or functional assay
hEGFR-ECD [5] = molecular target: T3, hEGFR-ECD (human, UniProt P00533 25-645); assay: phage solution binding competition ELISA as in Example 1, antigen in solution varied
T3 construct: extracellular domain

HER3-ECD-Fc [6] = molecular target: T4, HER3-ECD-Fc (human, UniProt P21860 20-643, limits assumed); assay: phage solution binding competition ELISA as in Example 1, antigen in solution varied; experiment of paragraph 431 (compared with DL7 and DL11)
T4 construct: extracellular domain; also called HER3-FC; HER3-IgG

HER3-ECD-Fc [7] = molecular target: T4, HER3-ECD-Fc; assay: phage solution binding competition ELISA; experiment of paragraph 433 (compared with DL3.1-3.7)
HER4-ECD-Fc = molecular target: T5, HER4-ECD-Fc (human, UniProt Q15303 26-651, limits assumed); assay: direct phage ELISA, proteins coated at 2 µg/ml, phage-Fab supernatant, OD450;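 also: specificity test of dual-activity clones, with binding assessed across an antigen panel to check whether each recognises only its cognate target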
T5 construct: extracellular domain
T5 sequence (looked up): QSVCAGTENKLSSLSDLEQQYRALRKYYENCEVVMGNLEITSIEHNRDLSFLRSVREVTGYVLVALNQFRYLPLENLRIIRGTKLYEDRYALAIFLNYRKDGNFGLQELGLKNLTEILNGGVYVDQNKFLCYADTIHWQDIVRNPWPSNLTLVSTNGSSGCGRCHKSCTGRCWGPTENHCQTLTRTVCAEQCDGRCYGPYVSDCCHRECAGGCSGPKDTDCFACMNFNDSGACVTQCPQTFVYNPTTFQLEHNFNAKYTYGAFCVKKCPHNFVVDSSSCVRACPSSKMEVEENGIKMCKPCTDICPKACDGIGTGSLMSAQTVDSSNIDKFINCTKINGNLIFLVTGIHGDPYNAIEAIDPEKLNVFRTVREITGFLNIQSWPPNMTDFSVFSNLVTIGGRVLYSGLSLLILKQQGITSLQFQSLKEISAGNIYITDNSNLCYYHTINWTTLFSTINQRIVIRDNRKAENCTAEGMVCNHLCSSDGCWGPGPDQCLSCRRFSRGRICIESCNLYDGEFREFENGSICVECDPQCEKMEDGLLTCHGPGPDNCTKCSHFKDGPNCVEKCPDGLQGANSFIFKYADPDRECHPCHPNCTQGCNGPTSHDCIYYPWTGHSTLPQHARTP

BSA = molecular target: T6, BSA (bovine, UniProt P02769); assay: as above
T6 construct: also called bovine serum albumin
T6 sequence (P02769 25-607 limits assumed): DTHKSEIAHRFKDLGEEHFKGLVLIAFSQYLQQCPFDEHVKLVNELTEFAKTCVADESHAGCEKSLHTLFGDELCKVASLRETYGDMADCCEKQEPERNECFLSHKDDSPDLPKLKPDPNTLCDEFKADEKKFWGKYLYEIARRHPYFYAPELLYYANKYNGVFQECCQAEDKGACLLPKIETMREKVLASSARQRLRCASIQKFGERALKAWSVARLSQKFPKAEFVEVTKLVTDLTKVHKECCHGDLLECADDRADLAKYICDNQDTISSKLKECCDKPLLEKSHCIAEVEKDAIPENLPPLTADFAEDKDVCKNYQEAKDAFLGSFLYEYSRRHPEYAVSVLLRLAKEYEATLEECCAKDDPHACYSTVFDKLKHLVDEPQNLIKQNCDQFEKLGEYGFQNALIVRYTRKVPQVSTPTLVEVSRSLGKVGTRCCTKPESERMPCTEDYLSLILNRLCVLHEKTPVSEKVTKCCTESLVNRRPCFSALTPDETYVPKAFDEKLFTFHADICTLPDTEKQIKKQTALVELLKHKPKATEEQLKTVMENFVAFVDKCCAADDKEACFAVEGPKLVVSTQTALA

HER2-ECD = molecular target: T7, HER2-ECD (human, UniProt P04626 23-652); assay: as above
T7 construct: extracellular domain

[8] = molecular target: T8, human HER3-Fc (Example 9) (human, UniProt P21860 20-640); assay: SPR, both experiments; reference: affinity for EGFR
T8 construct: range 1-640; Produced in CHO cells, protein A purified; also called human HER3-IgG1; not shown: Fc region of human IgG1

[9] = molecular target: T8, human HER3-Fc (Example 9); assay: SPR BIAcore 2000, Fc fusion captured on CM5 with human Antibody Capture Kit, Fab analyte 0.244-250 nM, 25 C, 1:1 Langmuir
[10] = molecular target: T9, human EGFR-Fc (Example 9) (human, UniProt P00533 25-637); assay: as above
T9 construct: range 1-637; Produced in CHO cells, protein A purified; also called Recombinant human EGFR-IgG1; not shown: Fc region of human IgG1

hEGFR-ECD [11] = molecular target: T3, hEGFR-ECD; assay: SPR, BIAcore-2000, mIgG D1.5 immobilized on CM5 (~150 RU), EGFR-ECD 12.5-200 nM as analyte, 25 C, 1:1 Langmuir model
mEGFR-ECD-Fc = molecular target: T10, mEGFR-ECD-Fc (murine, UniProt Q01279 25-647); assay: competitive ELISA: serial dilutions of mEGFR-ECD-Fc with fixed D1.5 on hEGFR-ECD-Fc coated plate
T10 construct: extracellular domain; also called murine EGFR; not shown: Fc

Xolair = molecular target: T11, Xolair; assay: direct phage ELISA, proteins coated at 2 µg/ml, phage-Fab supernatant, OD450;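 also: specificity test of dual-activity clones, with binding assessed across an antigen panel to check whether each recognises only its cognate target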
T11 construct: not shown: the constant regions

HER3-ECD-Fc [12] = molecular target: T4, HER3-ECD-Fc; assay: as above
hEGFR-ECD [13] = molecular target: T3, hEGFR-ECD; assay: phage solution binding competition ELISA: hEGFR-ECD in solution varied, unbound phage captured on antigen-coated plate
[14] = molecular target: T12, hEGFR-ECD-Fc (human EGFR extracellular domain fused to an Fc region of human IgG1) (human, UniProt P00533 25-645); assay: phage ELISA of clones from plate selection
T12 construct: extracellular domain; not shown: Fc region of human IgG1

hEGFR-ECD [15] = molecular target: T3, hEGFR-ECD; assay: direct phage ELISA, proteins coated at 2 µg/ml, phage-Fab supernatant, OD450;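 also: specificity test of dual-activity clones, with binding assessed across an antigen panel to check whether each recognises only its cognate target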
Erbitux = molecular target: T13, Erbitux; assay: as above
T13 construct: also called cetuximab; C225; not shown: the constant regions

B1: DL11f (human IgG1) (bispecific antibody, V domains shown)
VH: EVQLVESGGGLVQPGGSLRLSCAASGFTLSGDWIHWVRQAPGKGLEWVGEISAAGGYTDYADSVKGRFTISADTSKNTAYLQMNSLRAEDTAVYYCARESRVSFEAAMDYWGQGTLVTVSS
VL: DIQMTQSPSSLSASVGDRVTITCRASQNIATDVAWYQQKPGKAPKLLIYSASFLYSGVPSRFSGSGSGTDFTLTISSLQPEDFATYYCQQSEPEPYTFGQGTKVEIKR
[1]
  Kd: 2.63 nM
[2]
  Kd: 19.9 nM
[3]
  fold higher affinity for HER3 than for EGFR: 5 to 8 fold
[4]
  IC50 of inhibition of MDA-175 cell proliferation: 0.8 to 1 µg/mL

B2: D1.5-100 (phage-displayed Fab clone) (Fab, V domains shown)
VH: EVQLVESGGGLVQPGGSLRLSCAASGFTFTGNWIHWVRQAPGKGLEWVGEISPSGGYTDYADSVKGRFTISADTSKNTAYLQMNSLRAEDTAVYYCARESRVSYEAAMDYWGQGTLVTVSS
VL: DIQMTQSPSSLSASVGDRVTITCRASQDLATDVAWYQQKPGKAPKLLIYSASFLYSGVPSRFSGSGSGTDFTLTISSLQPEDFATYYCQQSEPEPYTFGQGTKVEIKR
notes: also called DL1.5-100
hEGFR-ECD [5]
  IC50: 44 nM
HER3-ECD-Fc [6]
  IC50: 0.1 nM
HER3-ECD-Fc [7]
  IC50: 4.6 nM
HER4-ECD-Fc
  binding result: no binding
BSA
  binding result: no binding
HER2-ECD
  binding result: no binding

B3: DL11f Fab (Fab, V domains shown)
VH: EVQLVESGGGLVQPGGSLRLSCAASGFTLSGDWIHWVRQAPGKGLEWVGEISAAGGYTDYADSVKGRFTISADTSKNTAYLQMNSLRAEDTAVYYCARESRVSFEAAMDYWGQGTLVTVSS
VL: DIQMTQSPSSLSASVGDRVTITCRASQNIATDVAWYQQKPGKAPKLLIYSASFLYSGVPSRFSGSGSGTDFTLTISSLQPEDFATYYCQQSEPEPYTFGQGTKVEIKR
[8]
  fold higher affinity for HER3 than for EGFR: 5 to 8 fold
[9]
  Kd: 0.39 nM
[10]
  Kd: 1.92 nM

B4: D1.5 (mIgG2A) (antibody, V domains shown)
VH: EVQLVESGGGLVQPGGSLRLSCAASGFTFTGNWIHWVRQAPGKGLEWVGEISPSGGYTDYADSVKGRFTISADTSKNTAYLQMNSLRAEDTAVYYCARESRVSYEAAMDYWGQGTLVTVSS
VL: DIQMTQSPSSLSASVGDRVTITCRASQDVSTAVAWYQQKPGKAPKLLIYSASFLYSGVPSRFSGSGSGTDFTLTISSLQPEDFATYYCQQSYPTPYTFGQGTKVEIKR
notes: also called mIgG D1.5; anti-EGFR mIgG2A
hEGFR-ECD [11]
  Kd: 1.2 nM
mEGFR-ECD-Fc
  binding result: binds

B5: D1.5 (phage-displayed Fab clone) (Fab, V domains shown)
VH: EVQLVESGGGLVQPGGSLRLSCAASGFTFTGNWIHWVRQAPGKGLEWVGEISPSGGYTDYADSVKGRFTISADTSKNTAYLQMNSLRAEDTAVYYCARESRVSYEAAMDYWGQGTLVTVSS
VL: DIQMTQSPSSLSASVGDRVTITCRASQDVSTAVAWYQQKPGKAPKLLIYSASFLYSGVPSRFSGSGSGTDFTLTISSLQPEDFATYYCQQSYPTPYTFGQGTKVEIKR
Xolair
  binding result: no binding
HER3-ECD-Fc [12]
  binding result: no binding
HER4-ECD-Fc
  binding result: no binding
BSA
  binding result: no binding
HER2-ECD
  binding result: no binding
hEGFR-ECD [13]
  IC50: 0.39 nM

B6: D1.5-201 (phage-displayed Fab clone) (Fab, V domains shown)
VH: EVQLVESGGGLVQPGGSLRLSCAASGFTFTGNWIHWVRQAPGKGLEWVGEISPSGGYTDYADSVKGRFTISADTSKNTAYLQMNSLRAEDTAVYYCARESRVSYEAAMDYWGQGTLVTVSS
VL: DIQMTQSPSSLSASVGDRVTITCRASQAVWGGYIAPVAWYQQKPGKAPKLLIYDGSYLYSGVPSRFSGSGSGTDFTLTISSLQPEDFATYYCQQRLPTPYTFGQGTKVEIKR
notes: EGFR/HER2 dual-specific clone from the D1.5 light chain library
[14]
  binding result: binds
hEGFR-ECD [15]
  binding result: binds
HER3-ECD-Fc [12]
  binding result: no binding
Erbitux
  binding result: no binding
HER4-ECD-Fc
  binding result: no binding
BSA
  binding result: no binding
HER2-ECD
  binding result: binds
